Test results from patent US20230272086A1 (CHIA TAI TIANQING PHARMACEUTICAL GROUP, published 2023).

T1: recombinant protein containing hST2 extracellular domain with mouse antibody heavy chain Fc tag (hST2-ECD-mFc) (human)
T1 construct: Used for SPR and for ELISA of chimeric and humanized antibodies; also called human ST2 antigen
T1 chain: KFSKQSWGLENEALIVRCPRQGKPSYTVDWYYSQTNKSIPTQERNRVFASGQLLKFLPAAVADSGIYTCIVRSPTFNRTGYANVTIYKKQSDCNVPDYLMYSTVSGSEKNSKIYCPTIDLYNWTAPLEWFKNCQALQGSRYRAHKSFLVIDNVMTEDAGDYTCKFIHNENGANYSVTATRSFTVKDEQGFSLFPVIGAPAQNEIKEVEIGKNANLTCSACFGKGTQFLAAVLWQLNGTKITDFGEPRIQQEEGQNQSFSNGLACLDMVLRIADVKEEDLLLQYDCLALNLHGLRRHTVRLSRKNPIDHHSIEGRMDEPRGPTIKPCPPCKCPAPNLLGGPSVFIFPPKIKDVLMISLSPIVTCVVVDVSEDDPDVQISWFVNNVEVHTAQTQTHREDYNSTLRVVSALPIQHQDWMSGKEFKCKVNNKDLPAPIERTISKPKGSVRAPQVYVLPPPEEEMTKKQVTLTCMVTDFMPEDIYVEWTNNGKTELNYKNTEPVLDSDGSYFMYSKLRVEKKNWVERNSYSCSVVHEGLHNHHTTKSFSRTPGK

T2: cynomolgus monkey ST2 antigen (Cyno-ST2-his, Sino biological, 90915-C08H) (cynomolgus monkey, UniProt Q01638 19-328 (human entry))
T2 construct: Bought protein; not shown: his tag
T2 chain: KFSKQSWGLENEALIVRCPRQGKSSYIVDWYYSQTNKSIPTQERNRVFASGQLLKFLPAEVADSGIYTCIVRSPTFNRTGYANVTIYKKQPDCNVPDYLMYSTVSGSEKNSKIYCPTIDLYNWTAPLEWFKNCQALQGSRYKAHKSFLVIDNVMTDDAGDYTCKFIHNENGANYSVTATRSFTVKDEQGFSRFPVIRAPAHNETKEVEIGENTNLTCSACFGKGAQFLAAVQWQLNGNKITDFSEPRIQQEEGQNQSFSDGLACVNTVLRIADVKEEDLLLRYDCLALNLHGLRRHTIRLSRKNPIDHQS


Key:
[1] = target: recombinant protein containing hST2 extracellular domain with human antibody heavy chain Fc tag (hST2-ECD-hFc) (human); test: competition ELISA, coated hST2-ECD-hFc, antibody then biotin-labeled hIL33 Avitag (competitor)
Protocol: Whether the anti-ST2 antibodies were able to block the binding of hIL33 to hST2 was determined based on ELISA. A high-adsorption 96-well plate was coated with 2 µg/mL hST2-ECD-hFc at 100 µL/well and incubated overnight at 4° C. After the antigen not adsorbed was well washed off, the non-specific binding sites were blocked with a blocking buffer (PBST containing 1% bovine serum albumin). After the plate was washed three times with a washing buffer (PBST, PBS containing 0.05% (v/v) Tween 20), the anti-ST2 antibodies (serially diluted 2-fold from an initial concentration of 66.67 nM to 8 concentrations) were added at 100 µL/well, and the plate was incubated at 37° C. for 1 h After the plate was washed 3 times with the washing buffer, 100 µL of biotin-labeled hIL33 Avitag (with a concentration of 0.1 µg/mL) was added to each well, and the plate was incubated at 37° C. for 1 h. After the plate was washed 3 times with the washing buffer, a 1:1000 diluted secondary antibody Avidin HRP (Jackson immunoresearch, 016-030-084) was added at 100 µL/well, and the plate was incubated at room temperature for 1 h After the plate was washed with the washing buffer, the substrate TMB solution (Thermo, 00-4201-56) was added at 100 µL/well, and the plate was incubated at room temperature for 3 min. 50 µL of a stop solution (2 N H₂SO₄) was added to terminate the reactions. Colorimetric signals were generated and read at 450 nm using a plate reader (PE, Envision). The data were analyzed using GraphPad Prism5, and the IC₅₀ values were calculated.

[2] = target: T1, recombinant protein containing hST2 …; test: SPR (Biacore T200), hST2-ECD-mFc captured by anti-mouse IgG on CM5, antibody as analyte, 1:1 model
Protocol: The reaction signals were detected in real time using a Biacore instrument (Cytiva, BiacoreT200), and then an association-dissociation curve was obtained. After the completion of dissociation in each cycle, the biochip was regenerated with a regeneration solution for the next capture; the procedure was repeated until the affinity of the different antibodies for ST2 was determined. The acquired data were finally analyzed using the GE BIAevaluation software with a 1:1 (Langmuir) binding model to determine the association rate constants ka (kon) and the dissociation rate constants kd (koff), and the dissociation constants KD were given by KD = kd/ka. The determined affinity of the anti-ST2 antibody for human ST2 antigen (hST2-ECD-mFc), cynomolgus monkey ST2 antigen (Cyno-ST2-his, Sino biological, 90915-C08H) and the determined affinity of the anti-ST2 chimeric antibodies for ST2 were shown in Table 5.

[3] = target: T2, cynomolgus monkey ST2 antigen …; test: ELISA, plate coated with Cyno-ST2-his
Protocol: (§1) ST2 binding screening and analysis of antibodies were performed by ELISA using hST2-ECD-mFc (for assays of chimeric and humanized antibodies), hST2-ECD-hFc protein (for assays of hybridoma antibodies) and Cyno-ST2-his (Sino biological, 90915-C08H) as antigens. A high-adsorption 96-well plate (Costar, 9018) was coated with 2 µg/mL hST2-ECD-mFc or Cyno-ST2-his antigen at 100 µL/well and incubated overnight at 4° C. After the antigen not adsorbed was well washed off, the non-specific binding sites were blocked with a blocking buffer (PBS containing 2% bovine serum albumin). After the plate was washed three times with a washing buffer (PBS containing 0.05% (v/v) Tween 20), the anti-ST2 antibodies (serially diluted 3-fold from an initial concentration of 10 nM to 8 concentrations: 3.333 nM, 1.111 nM, 0.370 nM, 0.123 nM, 0.041 nM, 0.014 nM, 0.005 nM, and 0.002 nM) were added at 100 µL/well, and the plate was incubated at room temperature for 1 h. After the plate was washed with the washing buffer, a horseradish peroxidase (HRP)-conjugated secondary antibody was added, and the plate was incubated for another 60 min. After the plate was washed with the washing buffer, the substrate TMB solution (Thermo, 00-4201-56) was added at 100 µL/well, and the plate was incubated at room temperature for 2 min. A stop solution (2 N H₂SO₄) was added at 100 µL/well to terminate the reactions. Colorimetric signals were generated and read at 450 nm using a microplate reader (PE, Envision). The data were analyzed using GraphPad Prism5, and the EC₅₀ values were calculated.

[4] = target: T1, recombinant protein containing hST2 …; test: ELISA, plate coated with hST2-ECD-mFc
Protocol: as §1

Row | IC50 [1] [pM] | Kd [2] [pM] | EC50 [3] [pM] | EC50 [4] [pM] | Binder
1 | 2880 | 68.6 | 129 | 113 | RG6149 (antibody Ab2 in CN104334582, prepared in-house) (antibody, human IgG2, kappa, V domains shown, Control anti-ST2 antibody) VH: EVQLVQSGAEVKKPGESLKISCKGSGYSFTNYWIGWVRQMPGKGLEWMGIIYPGNSDTRFSPSFQGQVTISADKSITTAYLQWSSLKASDTAMYYCARHGTSSDYYGLDVWGQGTTVTVSS VL: not shown
2 | 3350 | 54.1 | 220 | 235 | Chimeric 17E2 (antibody, human IgG2, kappa, V domains shown, also called xi17E2) VH: QVQLQQSGAELVRPGASVTLSCKASGYTFTDYEMHWVKQTPVLGLEWIGAIDPETGDTAYNQKFKGKATLTADKSSSTAYMELSSLASEDSAVYYCIRVDSNYDYFDYWGQDTTLTVSS VL: DIVLTQSPPILSASPGEKVTMTCRASSSVSYMHWYQQKPGSSPKPWIYDTSNLASGVPARFSGSGSGTSYSLTISRVEAEDAATYYCQQWSSNPLTFGAGTKLELKR
3 | 2790 | 93.3 | 164 | 172 | Chimeric 8F4 (antibody, human IgG2, kappa, V domains shown, also called xi8F4) VH: QVQLQQSGAELVRPGASVTLSCKASGHIFTDYEMQWVKQTPVHGLEWIGAFDPETGDTAYNQKFKGKATLTADKSSSTAYMELSSLTSEDSAVYYCSGSTTDYYFAYWGQGTSLTVSS VL: DVVMTQTAFSNPVTLGTSASISCRSSKSLLHSNGIIYLYWYLQKPGQSPQLLIYQMSNLASGVPDRFSSSGSGTDFTLRISRVEAEDVGVYYCAQNLELPFTFGSGTKLEIKR
4 | 2530 | 29.9 | 946 | 175 | Chimeric 26A1 (antibody, human IgG2, kappa, V domains shown, also called xi26A1) VH: QVQLQQSGAELVRPGASVTLSCKASDYIFTDSEIHWVKQTLVHGLEWIGAIDPETGDTAYNQKFKGKATLTADKSSSTAYMELSSLTSEGSAVYYCSGSTTDCYFAYWGQGTTLTVSS VL: DIVMTQAAFSNPVTLGTSASISCRSSKSLLHSNGIIYLYWYLQKPGQSPQLLIYQMSNLASGVPDRFSSSGSGTDFTLRISRVEAEDVGVYYCAQNLELPFTFGSGTKLEIKR

The next lines start with the binder.

Row | Binder | IC50 [1] [pM] | Kd [2] [pM] | EC50 [3] [pM] | EC50 [4] [pM]
5 | Chimeric 7D1 (antibody, human IgG2, kappa, V domains shown, also called xi7D1) VH: QVQLQQSGAELVRPGASVTLSCKASGYTFTDYEMHWVKQTPVHGLDWIGTIDPETGDTAYNQKFKGRATLTADKSSSTAYMELSSLTSEDSAVYYCTRYSYTNSPYGMDYWGQGTSVTVSS VL: DVVMTQTPKFLLVSAGDRVTITCKASQSVSNDVAWYQQKPGQSPKLLIYYASNRYTGVPDRFTGSGYGTDFTFTINTVQAEDLAVYFCQQDYSSPYTFGGGTKLEIKR | 2900 | 145 | 191 | 191
6 | Chimeric 31C8 (antibody, human IgG2, kappa, V domains shown, also called xi31C8) VH: QVQLQQSGPELVRPGASVTLSCKASGYIFIDSEMHWVKQTPVHGLEWIGAIDPETGDTVYNQKFKGKATLTADKSSSTASMELSSLTSEDSAVYYCTGSTTDYYFAYWGQGTTLTVSS VL: DIVMTQAAFSNPVTLGTSASISCRSSKSLLHSNGIIYLYWYLQKPGQSPQLLIYQMSNLASGVPDRFSSSGSGTDFTLRISRVEAEDVGVYYCAQNLELPFTFGSGTKLEIKR | 2500 | 17.7 | 163 | 184
7 | Chimeric 3C6 (antibody, human IgG2, kappa, V domains shown, also called xi3C6) VH: QVQLQQSGAEVVRPGASVTLSCKASDYTITDYEMHWVKQTPVHGLEWIGAIDPETGDTAYSQNFKGKATLTADESSSTAYMELSSLTSEDSAVYYCSRSATDYYFASWGQGTTLTVSS VL: DIVMTQAAISNPVTLGTSASMSCRSSKSLLHSNGITYLYWYLQKPGHSPQLLIYQMSNLASGVPDRFSSSGSGTDFTLKISRVEAEDVGVYYCAQNLELPFTFGSGTKLEIKR | 2520 | 87.2 | 430 | 157
